Measurements as given in patent US20140135264A1 (CLEVELAND CLINIC FOUNDATION, published 2014).
Each block holds one molecule with its values, some of them ahead of it.

Legend:
[1] = molecular target: DiYF β3 integrin (αvβ3 with β3 tyrosines 747 and 759 substituted for phenylalanines), on DiYF mouse lung endothelial cells (mouse) (UniProt P43406); assay: cell-based or functional assay
[2] = molecular target: αvβ3 integrin, wild type, on mouse lung endothelial cells (WT EC) (mouse) (UniProt P43406); assay: flow cytometry, FITC-fibrinogen on WT mouse lung EC, 1 mM MnCl2 against unstimulated cells
[3] = molecular target: DiYF β3 integrin (αvβ3 with β3 tyrosines 747 and 759 substituted for phenylalanines), on DiYF mouse lung endothelial cells (mouse) (UniProt P43406); assay: flow cytometry, FITC-fibrinogen on DiYF mouse lung EC, 1 mM MnCl2 against unstimulated cells
[4] = molecular target: DiYF β3 integrin (αvβ3 with β3 tyrosines 747 and 759 substituted for phenylalanines), on DiYF mouse lung endothelial cells (mouse) (UniProt P43406); assay: flow cytometry, FITC-fibrinogen on DiYF mouse lung EC, 20 ng/ml VEGF against unstimulated cells
[5] = molecular target: αvβ3 integrin, wild type, on mouse lung endothelial cells (WT EC) (mouse) (UniProt P43406); assay: flow cytometry, FITC-fibrinogen on WT mouse lung EC, 20 ng/ml VEGF against unstimulated cells (printed as 'at least')
[6] = molecular target: VEGF receptor-2 on mouse lung endothelial cells (mouse) (UniProt P35918); assay: cell-based or functional assay
[7] = molecular target: αvβ3 integrin on human endothelial cells (HUVEC; vasculature of human prostate tissue) (human) (UniProt P06756); assay: flow cytometry, WOW-1 Fab on HUVEC, VEGF-A165 against resting cells
[8] = molecular target: αvβ3 integrin, wild type, on mouse lung endothelial cells (WT EC) (mouse) (UniProt P43406); assay: flow cytometry, WOW-1 Fab on WT mouse lung EC, 1 mM MnCl2 against unstimulated cells
[9] = molecular target: DiYF β3 integrin (αvβ3 with β3 tyrosines 747 and 759 substituted for phenylalanines), on DiYF mouse lung endothelial cells (mouse) (UniProt P43406); assay: flow cytometry, WOW-1 Fab on DiYF mouse lung EC, 1 mM MnCl2 against unstimulated cells
[10] = molecular target: αvβ3 integrin, wild type, on mouse lung endothelial cells (WT EC) (mouse) (UniProt P43406); assay: flow cytometry, WOW-1 Fab on WT mouse lung EC, 20 ng/ml VEGF against unstimulated cells
[11] = molecular target: DiYF β3 integrin (αvβ3 with β3 tyrosines 747 and 759 substituted for phenylalanines), on DiYF mouse lung endothelial cells (mouse) (UniProt P43406); assay: flow cytometry, WOW-1 Fab on DiYF mouse lung EC, 20 ng/ml VEGF against unstimulated cells
[12] = molecular target: αvβ3 integrin on human endothelial cells (HUVEC; vasculature of human prostate tissue) (human) (UniProt P06756); assay: immunohistochemistry, WOW-1 staining density, prostate carcinoma against normal prostate tissue
[13] = molecular target: VEGFR-2 on human endothelial cells (HUVEC; vasculature of human prostate tissue) (human, UniProt P35968 20-1356); assay: cell-based or functional assay
Chain of VEGFR-2 on human endothelial cells (HUVEC; vasculature of human prostate tissue) (P35968 20-1356): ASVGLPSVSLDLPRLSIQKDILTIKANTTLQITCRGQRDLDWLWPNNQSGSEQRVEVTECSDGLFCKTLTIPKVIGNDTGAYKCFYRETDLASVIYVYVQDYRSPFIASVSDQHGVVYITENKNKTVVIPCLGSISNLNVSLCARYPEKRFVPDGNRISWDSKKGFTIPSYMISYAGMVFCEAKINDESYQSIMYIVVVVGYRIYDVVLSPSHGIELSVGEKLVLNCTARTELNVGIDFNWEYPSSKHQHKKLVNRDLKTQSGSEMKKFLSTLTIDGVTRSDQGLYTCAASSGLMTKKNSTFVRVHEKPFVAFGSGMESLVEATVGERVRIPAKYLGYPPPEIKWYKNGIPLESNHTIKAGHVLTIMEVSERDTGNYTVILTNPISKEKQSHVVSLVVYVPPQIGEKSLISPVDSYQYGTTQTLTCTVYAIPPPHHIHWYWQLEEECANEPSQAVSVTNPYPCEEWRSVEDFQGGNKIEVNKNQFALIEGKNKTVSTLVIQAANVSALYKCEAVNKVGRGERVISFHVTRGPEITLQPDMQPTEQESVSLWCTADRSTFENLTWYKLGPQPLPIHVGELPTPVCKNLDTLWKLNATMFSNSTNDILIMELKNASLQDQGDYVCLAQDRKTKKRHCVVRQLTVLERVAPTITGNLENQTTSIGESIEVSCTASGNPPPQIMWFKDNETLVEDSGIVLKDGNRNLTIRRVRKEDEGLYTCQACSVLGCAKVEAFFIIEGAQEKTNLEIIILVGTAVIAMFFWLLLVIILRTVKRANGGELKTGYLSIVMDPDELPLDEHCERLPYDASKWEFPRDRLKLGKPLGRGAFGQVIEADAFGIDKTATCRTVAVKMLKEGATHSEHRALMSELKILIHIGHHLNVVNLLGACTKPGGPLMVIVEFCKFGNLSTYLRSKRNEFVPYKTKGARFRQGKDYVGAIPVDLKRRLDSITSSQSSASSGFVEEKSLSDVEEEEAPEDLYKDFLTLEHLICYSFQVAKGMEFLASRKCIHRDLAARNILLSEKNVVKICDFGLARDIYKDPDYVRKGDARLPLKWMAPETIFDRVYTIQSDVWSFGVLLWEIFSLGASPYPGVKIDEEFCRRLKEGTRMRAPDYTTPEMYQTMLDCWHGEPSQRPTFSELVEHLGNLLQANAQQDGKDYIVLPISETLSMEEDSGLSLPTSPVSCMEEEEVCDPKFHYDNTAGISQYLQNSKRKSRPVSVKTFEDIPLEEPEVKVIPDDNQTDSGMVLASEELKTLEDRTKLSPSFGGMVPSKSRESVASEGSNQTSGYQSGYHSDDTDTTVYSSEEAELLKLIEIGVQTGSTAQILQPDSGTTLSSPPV

Chain of VEGF receptor-2 on mouse lung endothelial cells (mouse) (P35918 20-1345): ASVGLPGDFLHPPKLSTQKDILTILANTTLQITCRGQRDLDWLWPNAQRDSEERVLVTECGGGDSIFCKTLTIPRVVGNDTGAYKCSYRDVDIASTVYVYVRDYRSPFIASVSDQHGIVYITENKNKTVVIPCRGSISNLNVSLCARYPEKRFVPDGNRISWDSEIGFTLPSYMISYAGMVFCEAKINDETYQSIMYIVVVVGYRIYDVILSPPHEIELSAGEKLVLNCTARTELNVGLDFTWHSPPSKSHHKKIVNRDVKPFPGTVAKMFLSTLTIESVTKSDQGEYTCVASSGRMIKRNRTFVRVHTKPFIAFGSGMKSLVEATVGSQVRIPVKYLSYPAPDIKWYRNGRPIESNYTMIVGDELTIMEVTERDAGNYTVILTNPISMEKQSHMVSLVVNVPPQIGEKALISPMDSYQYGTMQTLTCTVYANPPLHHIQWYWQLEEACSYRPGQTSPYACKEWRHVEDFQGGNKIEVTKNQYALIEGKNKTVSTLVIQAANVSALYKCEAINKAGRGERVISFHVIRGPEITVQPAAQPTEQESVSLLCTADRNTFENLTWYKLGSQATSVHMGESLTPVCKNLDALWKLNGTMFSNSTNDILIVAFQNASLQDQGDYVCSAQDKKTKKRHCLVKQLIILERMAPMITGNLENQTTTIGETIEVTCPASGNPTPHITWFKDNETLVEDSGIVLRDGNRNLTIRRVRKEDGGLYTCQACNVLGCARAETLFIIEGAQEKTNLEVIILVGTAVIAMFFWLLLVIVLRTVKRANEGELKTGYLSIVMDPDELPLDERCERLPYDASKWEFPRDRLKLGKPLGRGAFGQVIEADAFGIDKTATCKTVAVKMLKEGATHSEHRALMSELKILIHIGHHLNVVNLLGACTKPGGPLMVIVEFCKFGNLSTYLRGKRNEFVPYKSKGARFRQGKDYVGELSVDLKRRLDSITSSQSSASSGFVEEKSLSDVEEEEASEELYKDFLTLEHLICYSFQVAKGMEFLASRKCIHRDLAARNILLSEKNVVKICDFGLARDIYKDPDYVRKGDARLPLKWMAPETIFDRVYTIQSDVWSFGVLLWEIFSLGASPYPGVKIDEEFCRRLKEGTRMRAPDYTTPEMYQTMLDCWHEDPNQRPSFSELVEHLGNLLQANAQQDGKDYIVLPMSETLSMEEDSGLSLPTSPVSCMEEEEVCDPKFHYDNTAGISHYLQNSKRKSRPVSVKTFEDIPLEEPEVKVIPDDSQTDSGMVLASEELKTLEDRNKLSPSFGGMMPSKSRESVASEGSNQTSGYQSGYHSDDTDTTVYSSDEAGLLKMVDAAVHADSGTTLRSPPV

fold decrease in adhesion of DiYF EC to vitronectin-coated wells, against WT EC [1]: 2 fold | fold decrease in spreading of DiYF EC on vitronectin-coated wells, against WT EC [1]: 4 fold
Molecule: vitronectin (ligand)

fold increase of binding [2]: > 40 fold | fold increase of binding [3]: 17 fold | fold increase of binding [4]: 3 fold | fold increase of binding [5]: 6 fold
Molecule: Fluorescein isothiocyanate (FITC)-labeled fibrinogen (ligand)

VEGFR-2 phosphorylation in DiYF EC (immunoprecipitation, anti-phosphotyrosine blot) [6]: 2.5 fold | VEGFR-2 phosphorylation in WT EC (immunoprecipitation, anti-phosphotyrosine blot) [6]: 6 fold
Molecule: VEGF-A165 (ligand)

fold increase of binding [7]: 6 fold | fold increase of binding [8]: 30 fold | fold increase of binding [9]: 14 fold | fold increase of binding [10]: 9 fold | fold increase of binding [11]: 3.5 fold | fold increase of WOW-1 density [12]: 2.7 fold
Molecule: WOW-1 Fab

fold decrease in VEGFR-2 phosphorylation in response to VEGF in HUVEC after β3 siRNA [13]: ~3 fold
B1: αvβ3 integrin on human endothelial cells (HUVEC; vasculature of human prostate tissue) (receptor)
chain 1: FNLDVDSPAEYSGPEGSYFGFAVDFFVPSASSRMFLLVGAPKANTTQPGIVEGGQVLKCDWSSTRRCQPIEFDATGNRDYAKDDPLEFKSHQWFGASVRSKQDKILACAPLYHWRTEMKQEREPVGTCFLQDGTKTVEYAPCRSQDIDADGQGFCQGGFSIDFTKADRVLLGGPGSFYWQGQLISDQVAEIVSKYDPNVYSIKYNNQLATRTAQAIFDDSYLGYSVAVGDFNGDGIDDFVSGVPRAARTLGMVYIYDGKNMSSLYNFTGEQMAAYFGFSVAATDINGDDYADVFIGAPLFMDRGSDGKLQEVGQVSVSLQRASGDFQTTKLNGFEVFARFGSAIAPLGDLDQDGFNDIAIAAPYGGEDKKGIVYIFNGRSTGLNAVPSQILEGQWAARSMPPSFGYSMKGATDIDKNGYPDLIVGAFGVDRAILYRARPVITVNAGLEVYPSILNQDNKTCSLPGTALKVSCFNVRFCLKADGKGVLPRKLNFQVELLLDKLKQKGAIRRALFLYSRSPSHSKNMTISRGGLMQCEELIAYLRDESEFRDKLTPITIFMEYRLDYRTAADTTGLQPILNQFTPANISRQAHILLDCGEDNVCKPKLEVSVDSDQKKIYIGDDNPLTLIVKAQNQGEGAYEAELIVSIPLQADFIGVVRNNEALARLSCAFKTENQTRQVVCDLGNPMKAGTQLLAGLRFSVHQQSEMDTSVKFDLQIQSSNLFDKVSPVVSHKVDLAVLAAVEIRGVSSPDHVFLPIPNWEHKENPETEEDVGPVVQHIYELRNNGPSSFSKAMLHLQWPYKYNNNTLLYILHYDIDGPMNCTSDMEINPLRIKISSLQTTEKNDTVAGQGERDHLITKRDLALSEGDIHTLGCGVAQCLKIVCQVGRLDRGKSAILYVKSLLWTETFMNKENQNHSYSLKSSASFNVIEFPYKNLPIEDITNSTLVTTNVTWGIQPAPMPVPVWVIILAVLAGLLLLAVLVFVMYRMGFFKRVRPPQEEQEREQLQPHENGEGNSET
chain 2: GPNICTTRGVSSCQQCLAVSPMCAWCSDEALPLGSPRCDLKENLLKDNCAPESIEFPVSEARVLEDRPLSDKGSGDSSQVTQVSPQRIALRLRPDDSKNFSIQVRQVEDYPVDIYYLMDLSYSMKDDLWSIQNLGTKLATQMRKLTSNLRIGFGAFVDKPVSPYMYISPPEALENPCYDMKTTCLPMFGYKHVLTLTDQVTRFNEEVKKQSVSRNRDAPEGGFDAIMQATVCDEKIGWRNDASHLLVFTTDAKTHIALDGRLAGIVQPNDGQCHVGSDNHYSASTTMDYPSLGLMTEKLSQKNINLIFAVTENVVNLYQNYSELIPGTTVGVLSMDSSNVLQLIVDAYGKIRSKVELEVRDLPEELSLSFNATCLNNEVIPGLKSCMGLKIGDTVSFSIEAKVRGCPQEKEKSFTIKPVGFKDSLIVQVTFDCDCACQAQAEPNSHRCNNGNGTFECGVCRCGPGWLGSQCECSEEDYRPSQQDECSPREGQPVCSQRGECLCGQCVCHSSDFGKITGKYCECDDFSCVRYKGEMCSGHGQCSCGDCLCDSDWTGYYCNCTTRTDTCMSSNGLLCSGRGKCECGSCVCIQPGSYGDTCEKCPTCPDACTFKKECVECKKFDRGALHDENTCNRYCRDEIESVKELKDTGKDAVNCTYKNEDDCVVRFQYYEDSSGKSILYVVEEPECPKGPDILVVLLSVMGAILLIGLAALLIWKLLITIHDRKEFAKFEEERARAKWDTANNPLYKEATSTFTNITYRGT
